Measurements published in the DeepSol protein solubility set.

assay: soluble on expression in E. coli; label from the status in PepcDB or PDB records

Which “soluble on expression in E. coli” value does the source give for “MGSDKIHHHHHHMTLTYFLDKETDTPIYKQLYESLRKDILSGKLKTGAKLPSIRHFAQTLNVSVITVQNAYHQLEAEGYITSRDRSGYYVENLAGLTLLERQDAKIIHAPHHDQASEDQIIDFSPSNIDNAQFPLSIWRKCVNETLLNHETRFNHHGAKLGELPLRAAVADYVTKSRILDCTEEQVVIFEGIEHSMNILSLLFKQMGKTAIMEQPSYKVIEDIFSLHQLPIQRVPSPKGVLSLEDLQEQKNGVLYLTPSHQYPYGSFLSIQERIKIINWAQNSESYVIEDDYDGEFRYDIDPVPSLQGLSKNHVIYIGTFSKTLSPAIRVSYAILPPELMKRYQEVCSMFPSPVSVHLQLALAKFMEDGHYERHIRRMRKYYKEKQDFLIATIQEVMGDHAALHGTTAGLHLVLELKNNSRPYKQLLAAARAHGVNIYPVKDVTPNPYFILGFSGLPREKITEGIRRLHKAWIE” here?
Its value is “not soluble”.

For “MGHHHHHHSHMTECRKSVPCGWERVVKQRLFGKTAGRFDVYFISPQGLKFRSKSSLANYLHKNGETSLKPEDFDFTVLSKRGIKSRYKDCS”, which “soluble on expression in E. coli” value is on record?
Its value is “not soluble”.

With “MDQSIRHLLGNLSLFTPPEEAAVYAEQHAVNKNEPLYFVVFPQADTALSELLVAGYQKLLENNFWGLTNSTQEAKDLMSRYGNTGLELYAHSRGSMTLGNMLYSFQQQGVHGIANENTTINLYGPAFNVLVASDLLGYVSDGKQTTVGFDGHRYDFVSRWIGGNSYTYKTIPSDSNAWKEWWRMFTDPDNPHTCLGDANAICNTLYGSSHLKQKP” as the sequence, how does the “soluble on expression in E. coli” value read?
The value was “not soluble”.

Which “soluble on expression in E. coli” value does the source give for “MILGEIMEVLAFKNQSLIDHVNDMVKYWERIKYRYLKTIKRALEALNIKLDIEKVDEFMKILIKLHDIGKASKIYQRAIINDQEKLMGFRHELVSAYYTYHILLKKFGDKNLAFIGALTVMLHHEPIIMGQIRNLKKKELTAEVVLDKLKKFDGMIEDFEDLIKKLIGYSIGDIIKNDSNKDDIIRFVIEMSVRARHTPNSEKLRFIVGTLLLPLVMCDYKGAESREGKAPKFAEVLEVESYVI” here?
Its value is “soluble”.

Which “soluble on expression in E. coli” value does the source give for “MSLRPSAPELDHAKRQRLARLPKPVPLGVCTLREQRWVVLDLETSGLNPNRDQVLSIGAVAIEDGAIDFAQQFERTLHRPLQKTNASVLIHGLGPSALAAGCDPAEALLDLLDFIGNSPVLAFHAPFDQRMLARALKETLGHRLQSMFLDVAELAPMLNPDTVLREAGLDDWVARFGLQVEERHHASADAQVTAELALILFSQARRQQLDSPLQLEQRLRGWRRRKMQSHGEGHHHHHH” here?
Its value is “soluble”.

Which “soluble on expression in E. coli” value does the source give for “GSHMASSEDEKLSFEAVRNIHKLMDDDANGDVDVEESDEFLREDLNYHDPTVKHSTFHGEDKLISVEDLWKAWKSSEVYNWTVDEVVQWLITYVELPQYEETFRKLQLSGHAMPRLAVTNTTMTGTVLKMTDRSHRQKLQLKALDTVLFG” here?
Its value is “soluble”.

Which “soluble on expression in E. coli” value does the source give for “STNVFIMGHVNPDIDCIGGAIGLYSVLSSKVDGDVHIVLDDTSSSVEGIVNRLVENYDEYKNVFMRSSDCIELIDQGSILILDDVNSRNYVLSEKILEEISKVVVIDHHRRAANYIKDTILSYIESYASSTSELVTEMIQYMDENHKLKPIEAEALLAGIVVDTKNFSFKTGVRTFEAAAFLRKNGADTIEIKKLFSNDL” here?
Its value is “not soluble”.

For “MGWKMQATVTEIGKHAIDDSEKMIILFGETATDTLKQHAVIQSFPEKDQVTLAEGDHLKIGDTNYTITKVGSFANSNLQSIAHSTLIFADAPTDEDDVIRNGVYLTPHQLPKITIGTTIDYLVNGA”, which “soluble on expression in E. coli” value is on record?
Its value is “soluble”.

For “MAHHHHHHMTLKEAIDRDGVPATSSSKQRRLMDIHVTAYPGLVNQHMLPKHNTAVNDFSSIDPLQYRKAHTVRNNNAASYSEKEENVLDMLTTNQCTNRMTRLGMQLREERAKNPKGMPSISSLAPRGYRSRFLSPSFDERSTYRWDYCQWEPDGFHDTVRRELLAAYRDDWTEDEKADVDISMKIPYLTMAVSSDRLKDKATIYRKDFMEDATQADYRSLSYKTNLEDLGTSYAYSAYSIDDPRRKVLFDASVAALKTPHSVLEKTYSPRNSFLEKSLSTKQQSSAREELDRLRTMRREALHLSAAKRSAAESTDDGTTTKTVVIPGIKGSGYRRVPKGNDSYVCLSRDHFCYQQVDNF”, which “soluble on expression in E. coli” value is on record?
The value was “not soluble”.

Which “soluble on expression in E. coli” value does the source give for “MHSQFGKHKSDISLLTPAPPSPKAFGLLYAAHWLGSTDPEIWERLETLANENQCLIDLRDEKVPGTYETQLFVIGYAGNIVTVLKQLQDYIDEPNNFDRFDIDRRPRKETLKMCVPTDMFLSKFGVGLVAEGRITHYEQNRGVTIKTYAISQSQHVISVYSNENNHQLPLHDLVEYFAYPSQCYEKSFAQKIPYLVDNKSGLLNRFKDISKLDVIKTPRDQLWLMALDGMKTVDARESILQALRENPDSASLYVRACKLEHLPSCKMEWLLHALQRDTLDDKMKIIKHAETYFRGPAILQILESAVLSLSNDIHIVRELAIAHEKSGNFEKSMQFLKDCIDNNSWNSTELTASMIHCEHAGANRTSKVYLEAMYSIFNFTTSEEAALIEIVKVLVETDSPLSAKSLSLELMTRYAGTPTFEKTRQLFHSLFYTTCSKSDSERYDDTFIKHMAKWNKKQQEQQK” here?
Its value is “not soluble”.

Which “soluble on expression in E. coli” value does the source give for “MNSITCPKCGTECDKLFDSVCRDCFFETFKLIDLPLVLHVKICSSCGAYFHRSRWENIGNLEEVVLKAVENALFIHDEAGDVELYLEPKEITPYIYMVRAEVDAIVRGEPVHAEAATEVRVQRIACDMCSRESGGYFEAIIQIRAAGRFPTEEEKRRCSAIAREAMESMKKKGDRLAFISDYQEQKEGIDLYMGSMNASRQVCRMIISELGGSFAESPTLVGMKDGKNLYRITFAMRLPEFRPGDVIRFRGRIIQIRSSGKKVNGISLEDGSRFLSTPEELKGAEKIANIGDAVLTVLVSIEENAILVLDPETYETVAIKKPMFFNAEAGSEIPVLKTEYGIFALAHTDIPQEKLEHHHHHH” here?
Its value is “soluble”.

Which “soluble on expression in E. coli” value does the source give for “MGSDKIHHHHHHMHPKSPLTMQQSSVFIDSEVLLDDRKFAEAMLLKKDKAGLSRADMVFVLRNLLRLKYYPVAVKFFYDEAEVEKFKAEHEYLVACNPFTFCHFCAESRQKGDVLFGERRTLGCSNARYLFGWKDYDENEIKSHMKYVKDREQAERFVKTKPRLPEGLLAFATAPLHKAKFEPDLVFIICDVLQSYHLYNDYAAAMDVHPIRPNFMMNSAACGGAVWSYVENTINIVPMCSGSYTAGKTEQGEINVFIPWAHFEKLVVRLLERTASQGGASFPRTGETYPGFDICKLCNFLLFRKPKEDE” here?
Its value is “not soluble”.

For “SLIDNPHAQDYWPNRGQMDVQGLAVKYTEAGRAVLSDISFSVEGGLSMGLLGRTGSGKSTLLSALLRLASTDGEISIDGISWNSVPLEKWRKAFGVVPQKVFILTGTFRMNLDPHGRYSDEELWRVADQVGLKSVIEQFPDRLDFQLENGGSVLSHGHKQLMCLARSILSKARILLLDEPSAYLDTITLQVLRKTLKHAFSDCTVILSEAKVEPLLECDSFLVIEGSSVKSYDSIQKLLNEMSDLKQAVSAAD”, which “soluble on expression in E. coli” value is on record?
The value was “not soluble”.

Which “soluble on expression in E. coli” value does the source give for “KVVFAKEQPAHREVQAEAGASATLSCEVAQAQTEVTWYKDGKKLSSSSKVRVEAVGCTRRLVVQQAGQAEAGEYSCEAGGQQLSFRLQVAGQCFG” here?
The value was “soluble”.

Which “soluble on expression in E. coli” value does the source give for “MEDQDLLEIGILNSGHRQRILQAIQLLPKMRPIGHDGYHPTSVAEWLDSIELGDYTKAFLINGYTSMDLLKKIWEVELINVLKINLIGHRKRILASLGDRLHDDPPQKPPRSITLREPSGNHTPPQLSPSLSQSTYTTGGSLDVPHIIMQGDARRRRNENYFDDIPRSKLERQMAQSSVCEIWTNQNAGFPFSAIHQVHNTGDWGEPSITLRPPNEATASTPVQYWQHHPEKLIFQSCDYKAFYLGSMLIKELRGTESTQDACAKMRANCQKSTEQMKKVPTIILSVSYKGVKFIDATNKNIIAEHEIRNISCAAQDPEDLSTFAYITKDLKSNHHYCHVFTAFDVNLAYEIILTLGQAFEVAYQLALQARKGGHSSTLPESFENKPSKPIPKPRVSIRKSVQIDPSEQKTLANLPWIVEPGQEAKRGINTKYETTIF” here?
Its value is “soluble”.

Which “soluble on expression in E. coli” value does the source give for “MAGTISDYGGRQQIWNLGNNIIDTKKLVDLELQALEMKKSPYTTQKQTLTNEKNVYASMKKEFGNLVQVFKDLYAFKGDEKKTTLSKDGFMKAQADAAAIPGTYTITVERVAERHQITTAPLTPSKTPESMEQKFSLDLKLGVDDVFQINGKEVKISKDMTYKDLVNKINNGNYGASVYTLGDQLFFTSTTAGEAGELKLTDGANGFLQNIGLVTSAKNPDGTNVVAHQVTGAINAEYTINGIKGTSKTNKIDTIPGLTINLEKETTEPIKLTIEDSDIKNSIDLIKKMKDEYNKAVKSLDLFAGENGVMQGSNVSFAINNAMTGIFKFSQDDKYLFSFGIQIDKKGNMTLDEEKLKTAFKENPESTKQFFFGLNGLGHDTEKKLDGIFGDEGIIGKRSKSIEKQVTDLERKIQDIDTVNKEKQKTIIDKYAKLESQLALLDSQLKTIQAMTKTKSDD” here?
Its value is “not soluble”.

With “MNWHPAACKISAKGGYLRVIIDASNVAHSRKNDEEKPCIENILSAAEELEKLGYEPVIIADASLRHEIDDKEQFRKLLEEGKFQQVPSGTSADHFILKMAEEEDAKILSNDVFRDYKDEFQDINSRRIPYTFREDKILIGTSGKPKKVKNILQKICNEALREFERKRIDAYKVKRGKKLSGIAIAKEAIDRISRSQEEGLEPRLEGIFMKLPLFERFMSMVEEVERTSNYIIFVLVHPKDYRDAVKYAGNIAVTVGDRLKLEHAPLVAVRNDLFLKPGTFELNIMYSEDVMEEAPYNVNITINDHDYSFVKKNSRNIASTLAARIGSWRFPIVSVKPSMLLEKPGEFEVVLEKGGNDLEHHHHHH” as the sequence, how does the “soluble on expression in E. coli” value read?
Its value is “soluble”.

With “MSVQLKCDAVNCVYNRSHLCSAEEIEVQGGETTGGDATFCGTFSSKSLGNFVSSLGNMNYSGSLKQAVSAEPIMDPKVHCNAVNCTYNDQRYCHADQVEIRNEVSHTAEELEHHHHHH” as the sequence, how does the “soluble on expression in E. coli” value read?
Its value is “soluble”.

For “MAPSRRERERERRREQIIRAAEKAFFARGYDRVTMDEIAEEAEVNKALLYYYFKNKESLFFAVNLYGVRILHSMYRRCLELDTDGYGKVRAMVEALYSFSKEHPDYFRIYCYSGTERFELSESEDAREIVDLRTGMWRLMVEAIMEGMNDGSIRSDLDPVELSIYIHTLAINALNLDFTSRMVLEARNISRDRFWEDLEVFLESALRP”, which “soluble on expression in E. coli” value is on record?
Its value is “not soluble”.

For “MNSLSTEQLGIGYGDRVIVEDLNISIPKGKITTLIGPNGCGKSTILKTMSRIMRSHAGAVYLNGKAIHKMSTKDIAKDMAILPQTPEAPSGLTVHELVSYGRFPHQSGFGRLNDEDRRIIKWALEETGMAEYAERPIEALSGGQRQRVWIAMALAQGTELLLLDEPTTYLDLAHQLEILQLLDRLNKEQGRTILMVIHDLNHAARFSHYMIALKKGTVIKEGTALEVMTPDILKQVFQIDAEIVTDPRTNKPVCLTYDLIKNEKELVTV”, which “soluble on expression in E. coli” value is on record?
The value was “not soluble”.

For “MIFTSGANKLNDNRNVRTKISSNRQSIKTAPTKAAEIPEYLQLYQTPPGDDISLTEFDDIAMERLKLLKSFENLKDSVSLYNDEFKDKFRKLCDGTKLIVFPDQKPPHQEEVYELWRRDNIGHFILRLAFCRTPENQKWLTQIEGDFLRFRLRQEREQVLDSALANVNFTIEKLGYTEKQAMIEDLEAACQFNLFEAPNKTFYKVDFIDAIELIRRGSVHLKKGFAYFPFDDLVTILVTKMKNNMMAAMARSFKHLAILEEEGRLLPRLSLLSNNAYSGKDYNGEQPDGSIIVTRHMIDKLSRRSFAPCMKQMHNHLRVNHHLKYGARRQYGLFLKGIGLSLDEAIAMMRDEFTKKITSDKFDKEYGYNIRYMYGKEGRRVAQTAMSCATIILRNPPSAVDCHGCPFRHSEKQVLKQKLGSDAILKKEQIERIAELAELNQYDKACTRYFEFMHNLEEGGLGQLITHPNQFYEESQKIVAERIAAKQESQEAPAPKIEKMDTE”, which “soluble on expression in E. coli” value is on record?
The value was “not soluble”.

With “MAKKVAIYTRVSTTNQAEEGFSIDEQIDRLTKYAEAMGWQVSDTYTDAGFSGAKLERPAMQRLINDIENKAFDTVLVYKLDRLSRSVRDTLYLVKDVFTKNKIDFISLNESIDTSSAMGSLFLTILSAINEFERELEY” as the sequence, how does the “soluble on expression in E. coli” value read?
The value was “soluble”.
